Patent US20260028399A1

T1: human CD96 (human) (UniProt P40200)
T1 sequence: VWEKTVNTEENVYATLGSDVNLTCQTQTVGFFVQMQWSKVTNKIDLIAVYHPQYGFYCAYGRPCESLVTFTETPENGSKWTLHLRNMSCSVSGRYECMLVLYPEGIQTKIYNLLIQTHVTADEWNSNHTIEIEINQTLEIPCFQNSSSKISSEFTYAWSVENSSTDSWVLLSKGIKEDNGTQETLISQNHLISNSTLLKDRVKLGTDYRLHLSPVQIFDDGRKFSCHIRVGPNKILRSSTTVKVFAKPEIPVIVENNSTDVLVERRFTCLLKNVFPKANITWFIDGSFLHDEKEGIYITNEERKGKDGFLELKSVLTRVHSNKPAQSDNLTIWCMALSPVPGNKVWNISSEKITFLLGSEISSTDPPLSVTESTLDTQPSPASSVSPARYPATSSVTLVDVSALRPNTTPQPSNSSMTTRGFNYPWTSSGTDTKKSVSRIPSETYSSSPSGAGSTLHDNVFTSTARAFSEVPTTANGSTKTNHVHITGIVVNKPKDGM

T2: human TIGIT (human) (UniProt Q495A1)
T2 sequence: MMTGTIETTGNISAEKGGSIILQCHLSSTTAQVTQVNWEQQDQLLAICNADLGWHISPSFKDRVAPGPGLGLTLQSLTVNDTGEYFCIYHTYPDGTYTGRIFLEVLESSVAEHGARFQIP

B1: anti-CD96 clone G1 scFv (R7P1-G1), displayed on phage (scFv, part only; not given: linker, domain order, phage fusion, V domains shown, not shown: another chain or arm of the molecule; large carriers; small tags and cut ends)
VH: EVQLVESGGDLVKPAGSLRLSCVASGFPFSDSDMNWVRQAPGKGLQWVAGIDEGATDTGYADAVKGRFTISRDDAKNTLYLQMNSLRADDTAMYYCAAGGNFAYWGQGTLVTVSS
VL: DIVMTQTPLSLSVSPGEPASISCKASQSLLHSNGNTYLYWFRQKPGQSPQGLIYLVSKRFSWVPDRFSGSGSGTDFTLRISRVEADDAGLYYCGQGIQYPYTFSQGTKLEIK
B2: anti-TIGIT clone C2 scFv (R8P1-C2), displayed on phage (scFv, part only; not given: linker, domain order, phage fusion, V domains shown, not shown: another chain or arm of the molecule; large carriers; small tags and cut ends)
VH: GVQLVESGGDLVKPAGSLRLSCVASGFTFSNYGMSWVRQAPGKGLQWVASIASGGSATAYADAVKGRFTLSRDDAKNTLYLQMNNLRTEDTSMYYCVAPGFQYWGQGTLVTVSS
VL: DIVMTQTPLSLSVSPGETASISCKASQSLLHSNGNTYLFWFRQKSGQSPQRLIYKVSNRDPGVPDRLSGSGSGTDFTLRISRVEADDAGVYYCGQGIQIPRTFGQGTKLEIK

How the values were obtained:
[1] = target: T1, human CD96 (human); assay: phage ELISA on coated CD96 (4 ug/ml), phage 2.5 x 10^10 pfu/ml, anti-M13-HRP/TMB
[2] = target: T1, human CD96 (human); assay: phage ELISA on coated CD96 (4 ug/ml), phage 4.8 x 10^8 pfu/ml (so in the source), anti-M13-HRP/TMB
[3] = target: T1, human CD96 (human); assay: phage ELISA on coated CD96 (4 ug/ml), phage 1.2 x 10^10 pfu/ml, anti-M13-HRP/TMB
[4] = target: T1, human CD96 (human); assay: phage ELISA on coated CD96 (4 ug/ml), phage 3 x 10^9 pfu/ml, anti-M13-HRP/TMB
[5] = target: T2, human TIGIT (human); assay: phage ELISA on coated TIGIT (4 ug/ml), phage 1.2 x 10^10 pfu/ml, anti-M13-HRP/TMB
[6] = target: T2, human TIGIT (human); assay: phage ELISA on coated TIGIT (4 ug/ml), phage 3 x 10^9 pfu/ml, anti-M13-HRP/TMB
[7] = target: T2, human TIGIT (human); assay: phage ELISA on coated TIGIT (4 ug/ml), phage 6 x 10^9 pfu/ml, anti-M13-HRP/TMB
[8] = target: T1, human CD96 (human); assay: phage ELISA on coated CD96 (4 ug/ml), phage 7.5 x 10^8 pfu/ml, anti-M13-HRP/TMB
[9] = target: T2, human TIGIT (human); assay: phage ELISA on coated TIGIT (4 ug/ml), phage 1 x 10^11 pfu/ml, anti-M13-HRP/TMB
[10] = target: T1, human CD96 (human); assay: phage ELISA on coated CD96 (4 ug/ml), phage 9 x 10^7 pfu/ml, anti-M13-HRP/TMB
[11] = target: T1, human CD96 (human); assay: phage ELISA on coated CD96 (4 ug/ml), phage 1 x 10^11 pfu/ml, anti-M13-HRP/TMB
[12] = target: T2, human TIGIT (human); assay: phage ELISA on coated TIGIT (4 ug/ml), phage 5 x 10^10 pfu/ml, anti-M13-HRP/TMB
[13] = target: T1, human CD96 (human); assay: phage ELISA on coated CD96 (4 ug/ml), phage 1.5 x 10^9 pfu/ml, anti-M13-HRP/TMB
[14] = target: T2, human TIGIT (human); assay: phage ELISA on coated TIGIT (4 ug/ml), phage 7.5 x 10^8 pfu/ml, anti-M13-HRP/TMB
[15] = target: T2, human TIGIT (human); assay: phage ELISA on coated TIGIT (4 ug/ml), phage 0 pfu/ml (no phage, background), anti-M13-HRP/TMB
[16] = target: T1, human CD96 (human); assay: phage ELISA on coated CD96 (4 ug/ml), phage 6 x 10^9 pfu/ml, anti-M13-HRP/TMB
[17] = target: T1, human CD96 (human); assay: phage ELISA on coated CD96 (4 ug/ml), phage 5 x 10^10 pfu/ml, anti-M13-HRP/TMB
[18] = target: T2, human TIGIT (human); assay: phage ELISA on coated TIGIT (4 ug/ml), phage 2.5 x 10^10 pfu/ml, anti-M13-HRP/TMB
[19] = target: T2, human TIGIT (human); assay: phage ELISA on coated TIGIT (4 ug/ml), phage 3.7 x 10^8 pfu/ml, anti-M13-HRP/TMB
[20] = target: T2, human TIGIT (human); assay: phage ELISA on coated TIGIT (4 ug/ml), phage 4.8 x 10^8 pfu/ml (so in the source), anti-M13-HRP/TMB
[21] = target: T2, human TIGIT (human); assay: phage ELISA on coated TIGIT (4 ug/ml), phage 1.5 x 10^9 pfu/ml, anti-M13-HRP/TMB
[22] = target: T1, human CD96 (human); assay: phage ELISA on coated CD96 (4 ug/ml), phage 0 pfu/ml (no phage, background), anti-M13-HRP/TMB
[23] = target: T1, human CD96 (human); assay: phage ELISA on coated CD96 (4 ug/ml), phage 3.7 x 10^8 pfu/ml, anti-M13-HRP/TMB
[24] = target: T2, human TIGIT (human); assay: phage ELISA on coated TIGIT (4 ug/ml), phage 9 x 10^7 pfu/ml, anti-M13-HRP/TMB
[25] = target: BSA (UniProt P02769); assay: phage ELISA on coated BSA, phage 6 x 10^9 pfu/ml, anti-M13-HRP/TMB
[26] = target: BSA (UniProt P02769); assay: phage ELISA on coated BSA, phage 1 x 10^11 pfu/ml, anti-M13-HRP/TMB
[27] = target: BSA (UniProt P02769); assay: phage ELISA on coated BSA, phage 3.7 x 10^8 pfu/ml, anti-M13-HRP/TMB
[28] = target: BSA (UniProt P02769); assay: phage ELISA on coated BSA, phage 9 x 10^7 pfu/ml, anti-M13-HRP/TMB
[29] = target: BSA (UniProt P02769); assay: phage ELISA on coated BSA, phage 3 x 10^9 pfu/ml, anti-M13-HRP/TMB
[30] = target: BSA (UniProt P02769); assay: phage ELISA on coated BSA, phage 0 pfu/ml (no phage, background), anti-M13-HRP/TMB
[31] = target: BSA (UniProt P02769); assay: phage ELISA on coated BSA, phage 1.5 x 10^9 pfu/ml, anti-M13-HRP/TMB
[32] = target: BSA (UniProt P02769); assay: phage ELISA on coated BSA, phage 2.5 x 10^10 pfu/ml, anti-M13-HRP/TMB
[33] = target: BSA (UniProt P02769); assay: phage ELISA on coated BSA, phage 1.2 x 10^10 pfu/ml, anti-M13-HRP/TMB
[34] = target: BSA (UniProt P02769); assay: phage ELISA on coated BSA, phage 7.5 x 10^8 pfu/ml, anti-M13-HRP/TMB
[35] = target: BSA (UniProt P02769); assay: phage ELISA on coated BSA, phage 5 x 10^10 pfu/ml, anti-M13-HRP/TMB
[36] = target: BSA (UniProt P02769); assay: phage ELISA on coated BSA, phage 4.8 x 10^8 pfu/ml (so in the source), anti-M13-HRP/TMB

Sequence of UniProt P02769 (P02769 25-607 limits assumed): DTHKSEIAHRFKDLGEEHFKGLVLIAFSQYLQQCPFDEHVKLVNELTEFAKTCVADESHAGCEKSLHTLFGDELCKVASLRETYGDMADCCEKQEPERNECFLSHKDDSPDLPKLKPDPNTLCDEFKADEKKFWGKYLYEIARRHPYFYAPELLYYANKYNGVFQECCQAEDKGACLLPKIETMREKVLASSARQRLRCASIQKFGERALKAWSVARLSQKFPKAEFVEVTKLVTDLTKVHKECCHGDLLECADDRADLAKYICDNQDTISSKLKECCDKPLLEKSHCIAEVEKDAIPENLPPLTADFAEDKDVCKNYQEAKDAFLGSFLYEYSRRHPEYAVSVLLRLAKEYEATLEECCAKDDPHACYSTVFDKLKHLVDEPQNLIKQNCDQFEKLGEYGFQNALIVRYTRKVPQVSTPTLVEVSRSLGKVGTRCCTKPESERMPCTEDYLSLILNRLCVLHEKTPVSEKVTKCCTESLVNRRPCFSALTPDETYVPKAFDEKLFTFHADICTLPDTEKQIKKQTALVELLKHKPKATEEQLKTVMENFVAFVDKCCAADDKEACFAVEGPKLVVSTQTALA

Molecule | phage ELISA signal [1] | phage ELISA signal [2] | phage ELISA signal [3] | phage ELISA signal [4] | phage ELISA signal [5] | phage ELISA signal [6] | phage ELISA signal [7] | phage ELISA signal [8] | phage ELISA signal [9] | phage ELISA signal [10] | phage ELISA signal [11] | phage ELISA signal [12] | phage ELISA signal [13] | phage ELISA signal [14] | phage ELISA signal [15] | phage ELISA signal [16] | phage ELISA signal [17] | phage ELISA signal [18] | phage ELISA signal [19] | phage ELISA signal [20] | further results
irrelevant phage | 0.18 | 0.02 | 0.08 | 0.02 | 0.15 | 0.07 | 0.09 | 0.02 | 0.24 | 0.03 | 0.59 | 0.31 | 0.02 | 0.03 | 0.04 | 0.08 | 0.31 | 0.25 | 0.03 | 0.03 | phage ELISA signal [21]: 0.04; phage ELISA signal [22]: 0.05; phage ELISA signal [23]: 0.01; phage ELISA signal [24]: 0.04
B1 | 2.65 | 0.63 | 2.59 | 2.11 | – | – | – | 1.36 | – | 0.38 | 2.61 | – | 1.73 | – | – | 2.28 | 2.68 | – | – | – | phage ELISA signal [25]: 0.02; phage ELISA signal [26]: 0.06; phage ELISA signal [27]: 0.02; phage ELISA signal [28]: 0.03; phage ELISA signal [29]: 0.02; phage ELISA signal [30]: 0.05; phage ELISA signal [31]: 0.02; phage ELISA signal [32]: 0.03; phage ELISA signal [22]: 0.05; phage ELISA signal [33]: 0.02; phage ELISA signal [34]: 0.01; phage ELISA signal [35]: 0.04; phage ELISA signal [36]: 0.01; phage ELISA signal [23]: 0.95
B2 | – | – | – | – | 2.54 | 2.52 | 2.58 | – | 2.05 | – | – | 2.53 | – | 1.99 | 0.03 | – | – | 2.66 | 1.61 | 1.21 | phage ELISA signal [25]: 0.03; phage ELISA signal [26]: 0.07; phage ELISA signal [27]: 0.02; phage ELISA signal [28]: 0.03; phage ELISA signal [29]: 0.02; phage ELISA signal [30]: 0.04; phage ELISA signal [31]: 0.02; phage ELISA signal [32]: 0.04; phage ELISA signal [21]: 2.34; phage ELISA signal [33]: 0.04; phage ELISA signal [34]: 0.01; phage ELISA signal [35]: 0.04; phage ELISA signal [36]: 0.02; phage ELISA signal [24]: 0.79
